Results on 1 substance are retold here after paper PMC5148590.

For experiment [1], the target named is Photobacterium profundum α-carbonic anhydrase (Photobacterium profundum SS9). In words: SEC; Hiprep 16/60 Sephacryl S-200 equilibrated with 20 mM Tris pH 7.5 and 150 mM NaCl; dimer to monomers. Background: Size exclusion chromatography separates by hydrodynamic size, large species first.
Experiment [2] shares this target. In words: non-reducing SDS-PAGE with protonography; purified PprCA in Laemmli loading buffer without 2-mercaptoethanol, 12% SDS gel, stained with Coomassie blue or by in-gel CO2 hydratase activity (bromothymol blue).

Regarding “Photobacterium profundum α-carbonic anhydrase (enzyme)”, the stoichiometry N in experiment [1] and in experiment [2] was 2 each time.

By stoichiometry N is commonly meant the number of molecules, sites or subunits per partner or assembly.
